Paper PMC7138851, “Quantitative assessment of the determinant structural differences between redox-active and inactive glutaredoxins” (Nature Communications, 2020)
Values joined by “and” are separate entries in the source; they are usually repeats but may differ in a detail not shown here. Equal values may be shown once.

Key:
ScGrx7 = target: T1, ScGrx7 (Saccharomyces cerevisiae, UniProt P38068); set-up: Disulfide oxidoreductase assay, steady-state kinetics, coupled NADPH consumption at 340 nm, pH 8.0, 25 °C; details: apparent Km at highest fixed GSH concentration; substrate; read-out: Km app(HEDS)
T1 construct: gene GRX7; E. coli XL1-Blue, pQE30; N-terminal MRGS(H)6 tag
T1 sequence (P38068 33-203): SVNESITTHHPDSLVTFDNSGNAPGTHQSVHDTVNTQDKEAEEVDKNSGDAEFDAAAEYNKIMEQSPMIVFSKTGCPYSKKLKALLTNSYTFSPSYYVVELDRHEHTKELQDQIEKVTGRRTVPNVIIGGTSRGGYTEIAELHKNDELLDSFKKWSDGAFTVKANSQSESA
Method: Steady-state kinetics of wild-type and mutant ScGrx7 and HsGrx5^C122S in the GSSCys and [compound left out] assays were determined spectrophotometrically by monitoring the consumption of NADPH at 340 nm and 25 °C using a thermostated Jasco V-650 UV/vis spectrophotometer[11],[19],[25]. Fresh stock solutions of NADPH, GSH, GR, and GSSCys or [compound left out] were prepared in assay buffer containing 0.1 M Tris/HCl, 1 mM EDTA, pH 8.0 before each experiment. Both assays were performed with 0.1 mM NADPH and 1 U/ml ScGR. […] NADPH, GSH, and GR were mixed in assay buffer before Grx was added and a baseline was recorded for 30 s. […] The absorbance of a reference cuvette containing all components but no Grx was measured in parallel and subtracted from the obtained Grx activity. […] NADPH, GSH, and [compound left out] were preincubated in assay buffer for 2 min before GR was added and a baseline was recorded for 30 s. […] Kinetic data were analyzed in Excel and SigmaPlot 13 by nonlinear and linear regression according to Michaelis–Menten, Lineweaver–Burk, Eadie–Hofstee, and Hanes theory[11],[19],[25].

Cys108 [1] = target: Cys108 (UniProt position 108, FSKTGCPYSKK); test: chemical modification; details: 23 °C, 100 mM KCl in a constant-ionic-strength three-buffer system (value not stated), 50 mM potassium acetate, 50 mM MES, 100 mM Tris, Freshly reduced (NaBH4) free enzyme, no glutathione bound
HsGrx5 = target: T2, HsGrx5 (Homo sapiens, UniProt Q86SX6, C122S); test: UV/vis absorbance of purified protein; format: binding; details: as purified from E. coli; cluster type not determined here
T2 construct: gene GLRX5; E. coli XL1-Blue, pQE30; N-terminal MRGS(H)6 tag; C122S in all constructs
T2 sequence (Q86SX6 32-157 C122S): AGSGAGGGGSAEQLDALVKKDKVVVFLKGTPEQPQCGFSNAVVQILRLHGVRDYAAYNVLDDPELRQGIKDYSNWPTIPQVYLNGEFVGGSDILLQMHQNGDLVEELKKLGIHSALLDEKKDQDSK

Cys108 [2] = target: Cys108 (UniProt position 108, FSETGCPYSKK); test: chemical modification; details: 23 °C, 100 mM KCl in a constant-ionic-strength three-buffer system (value not stated), 50 mM potassium acetate, 50 mM MES, 100 mM Tris, Freshly reduced (NaBH4) free enzyme, no glutathione bound
Cys108 [3] = target: Cys108 (UniProt position 108, FSATGCPYSKK); test: chemical modification; details: 23 °C (alkylation step), 25 °C (HEDS activity read-out), 100 mM KCl in a constant-ionic-strength three-buffer system, the ionic strength value is not stated, 50 mM potassium acetate, 50 mM MES, 100 mM Tris, Free enzyme, freshly reduced with a 20-fold molar excess of NaBH4, 6 µM protein
[4] = substrate: N[C@@H](CCC(=O)N[C@@H](CS)C(=O)NCC(=O)O)C(=O)O; test: purified protein, by the assay type; set-up: GSSCys oxidoreductase assay, GR-coupled NADPH consumption at 340 nm, apparent Km from Hanes plots; details: pH 8.0; 25.0 °C
Method: (§1) Steady-state kinetics of wild-type and mutant ScGrx7 and HsGrx5^C122S in the GSSCys and [compound left out] assays were determined spectrophotometrically by monitoring the consumption of NADPH at 340 nm and 25 °C using a thermostated Jasco V-650 UV/vis spectrophotometer[11],[19],[25]. Fresh stock solutions of NADPH, GSH, GR, and GSSCys or [compound left out] were prepared in assay buffer containing 0.1 M Tris/HCl, 1 mM EDTA, pH 8.0 before each experiment. Both assays were performed with 0.1 mM NADPH and 1 U/ml ScGR. The following final protein concentrations were used for Y110F/H/A (5–150 nM), D144A/K (10 nM), E147A/K (10 nM), R153A/E (25–50 nM), ScGrx7^WP (20 nM), ScGrx7^loop (up to 1.4 µM), ScGrx7^WP+loop (up 2.6 µM), HsGrx5^C122S (up to 15 µM), HsGrx5^RR (up to 12 µM), HsGrx5^loop (up to 1.6 µM), and HsGrx5^RR+loop (up to 4.0 µM). For the GSSCys assays, GSH was varied between 50 µM and 1.5 mM at fixed GSSCys concentrations (25, 50, 100, and 150 µM). NADPH, GSH, and GR were mixed in assay buffer before Grx was added and a baseline was recorded for 30 s. All GSSCys assays were started by the addition of GSSCys. The absorbance of a reference cuvette containing all components but no Grx was measured in parallel and subtracted from the obtained Grx activity. For the [compound left out] assays, GSH was varied between 100 µM and 2.0 mM at fixed concentrations of [compound left out] (0.18, 0.37, 0.55, and 0.74 mM). NADPH, GSH, and [compound left out] were preincubated in assay buffer for 2 min before GR was added and a baseline was recorded for 30 s. All [compound left out] assays were started by the addition of enzyme. Kinetic data were analyzed in Excel and SigmaPlot 13 by nonlinear and linear regression according to Michaelis–Menten, Lineweaver–Burk, Eadie–Hofstee, and Hanes theory[11],[19],[25]. 29 Supplementary Figure 15 Supplementary Figure 15 | GSSCys assay steady-state kinetics of HsGrx5loop and HsGrx5RR+loop . […] The activities of HsGrx5 and HsGrx5RR were similar to the NADPH consumption of negative controls without enzyme and could not be analyzed.

[5] = substrate: N[C@@H](CCC(=O)N[C@@H](CSSC[C@H](N)C(=O)O)C(=O)NCC(=O)O)C(=O)O; test: purified protein, by the assay type; set-up: GSSCys oxidoreductase assay, GR-coupled NADPH consumption at 340 nm, apparent Km from Hanes plots; details: pH 8.0; 25.0 °C
Method: as §1

Q: How did the Km (ScGrx7) turn out when `OCCSSCCO` [HEDS] was run?
A: 820 ± 190 µM

Q: With “Glutaredoxin 7 (ScGrx7), wild type (Saccharomyces cerevisiae)” as the molecule, how does the pKa (Cys108 [1]) read?
A: 4.3 ± 0.1 and 4.48

Q: How did the “UV/vis absorbance of purified protein” value (HsGrx5) turn out when `[S]1[Fe][S][Fe]1` [iron–sulfur cluster] was run?
A: Freshly purified recombinant wild-type HsGrx5 contained an iron–sulfur cluster

Q: How did the pKa (Cys108 [2]) turn out when “Glutaredoxin 7 (ScGrx7) K105E (Saccharomyces cerevisiae; K105E)” was run?
A: 5.0 ± 0.1

Q: How did the pKa (Cys108 [3]) turn out when “Glutaredoxin 7 (ScGrx7) K105A (Saccharomyces cerevisiae; K105A)” was run?
A: 4.4 ± 0.1

B1: HsGrx5 (Homo sapiens; C122S/DEL60-64/P65T/Q66G) (protein)
chain: AGSGAGGGGSAEQLDALVKKDKVVVFLKTGCGFSNAVVQILRLHGVRDYAAYNVLDDPELRQGIKDYSNWPTIPQVYLNGEFVGGSDILLQMHQNGDLVEELKKLGIHSALLDEKKDQDSK
notes: E. coli XL1-Blue, pQE30; N-terminal MRGS(H)6 tag; C122S in all constructs
Q: How did the kcat [4] turn out when B1 was run?
A: 0.18 s⁻¹ and 0.27 s⁻¹

Q: And the kcat/Km [4]?
A: 3900 M⁻¹ s⁻¹ and 4800 M⁻¹ s⁻¹

Q: And the kcat/Km [5]?
A: 1500 M⁻¹ s⁻¹ and 1600 M⁻¹ s⁻¹
